# Test results from patent US20120253009A1 (Amgen, published 2012).
# Substitutions are numbered along the chain they refer to.
# T1: human mpl receptor (human, UniProt P40238 26-635)
# T1 sequence (looked up): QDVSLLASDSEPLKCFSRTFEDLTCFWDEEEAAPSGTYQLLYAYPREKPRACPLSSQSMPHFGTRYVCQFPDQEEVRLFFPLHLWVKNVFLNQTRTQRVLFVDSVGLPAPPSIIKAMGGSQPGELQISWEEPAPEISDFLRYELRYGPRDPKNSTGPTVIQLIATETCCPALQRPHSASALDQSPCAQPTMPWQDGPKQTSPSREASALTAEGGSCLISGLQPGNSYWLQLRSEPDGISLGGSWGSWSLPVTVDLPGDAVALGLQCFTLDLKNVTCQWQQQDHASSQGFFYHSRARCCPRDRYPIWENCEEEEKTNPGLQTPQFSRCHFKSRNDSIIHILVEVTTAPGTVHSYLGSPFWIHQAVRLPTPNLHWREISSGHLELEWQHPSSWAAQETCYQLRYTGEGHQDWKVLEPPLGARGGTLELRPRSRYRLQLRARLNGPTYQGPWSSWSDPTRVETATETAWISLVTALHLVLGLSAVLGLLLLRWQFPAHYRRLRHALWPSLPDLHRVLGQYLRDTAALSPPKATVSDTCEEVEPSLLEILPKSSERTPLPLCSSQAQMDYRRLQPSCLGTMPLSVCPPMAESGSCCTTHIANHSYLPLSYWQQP
# B1: Fc-Loop (Asym) (SEQ ID NO: 35) (Fc fusion)
# chain: MDKTHTCPPCPAPELLGGPSVFLFPPKPKDTLMISRTPEVTCVVVDVSHEDPEVKFNWYVDGVEVHNAKTKPREEQYNSTYRVVSVLTVLHQDWLNGKEYKCKVSNKALPAPIEKTISKAKGQPREPQVYTLPPSRDELGGGGQGCSSGGPTLREWQQCRRMQHSGGTKNQVSLTCLVKGFYPSDIAVEWESNGQPENNYKTTPPVLDSDGSFFLYSKLTVDKSRWQQGNVFSCSVMHEALHNHYTQKSLSLSPGK
# B2: Fc-Loop (Sym) (SEQ ID NO: 35) (Fc fusion)
# chain: MDKTHTCPPCPAPELLGGPSVFLFPPKPKDTLMISRTPEVTCVVVDVSHEDPEVKFNWYVDGVEVHNAKTKPREEQYNSTYRVVSVLTVLHQDWLNGKEYKCKVSNKALPAPIEKTISKAKGQPREPQVYTLPPSRDELGGQGCSSGGPTLREWQQCRRMQHSGGTKNQVSLTCLVKGFYPSDIAVEWESNGQPENNYKTTPPVLDSDGSFFLYSKLTVDKSRWQQGNVFSCSVMHEALHNHYTQKSLSLSPGK
# B3: Fc-Loop (Asym) (SEQ ID NO: 5) (Fc fusion)
# chain: B1 chain with R160V
# B4: Fc-Loop (Sym) (SEQ ID NO: 5) (Fc fusion)
# chain: B2 chain with R158V
# B5: Fc-Loop (Sym) (SEQ ID NO: 6) (Fc fusion)
# chain: B2 chain with M160A
# Molecular target: T1, human mpl receptor
# Assay: cell-based or functional assay
row,Binder,EC50 on 32Dcl23/Mpl
1,B1,13 pM
2,B2,15 pM
3,B3,6 pM
4,B4,10 pM
5,B5,12 pM
